Assay: soluble on expression in E. coli; label from the status in PepcDB or PDB records

Row | Sequence | soluble on expression in E. coli
1 | MAHHHHHHMFTLCKGYSEDEDEEEVKDIIDNLKEQKKSFEEKINYYKLKGNIERSHITIYTNLGEFQVELYWYHSPKTCLNFYTLCTMGYYDNTIFHRVIPDYIIQGGDPTGTGKGGKSIYGEYFEDEINTELKHTGAGILSMSNNGPNTNGSQFFITLCPLPHLDGKHTIFARVSKNMTCIENIASVQTTATNKPIFDVKILRTSTAVNVD | soluble
2 | MAHHHHHHMGDNILDQKVDLFGGKGIFTKELDEELIKGKVHICVHSLKDVPMELPEQVQLSCFLKRDTINDAFLSVKYGTLEDMNKMKMANKMEEGSYQPKGMSQRVINQNVKRDNYEGDHYDNFIPTIGTSSLRRSSQIKYKYKNVAVKNMRGNINTRIAKLCNGQYDAIIIAKCGLERLTTKKGIRNIIGGKNKVTPKNFLINYNNTEINLTSLHIQQINKRTIYPALCQGIIAVSSHKSDKYISDVLKNINDEKAQIMANIERSFLYQIEGNCMMPIGGYAKIVNGEIVFNAVINDIHGREKYHVREVGKVESYNEIAVMAATKMKEKIGTHRFNKIREEAAQYYA | not soluble
3 | MAHHHHHHMGGAVSFCLQKLNKVSEVEYRPYKEYASYGEQSVPVKGSDDSGRSMIYRMSNTSEEELKRLRDEWYAGGSCLSVLERLCKERGKRTCLAYRKLKTIEKNETTTSDGRKKVLETYVFEPERRTMSYTLFWQNIVDFGRGLHEIGLTKGNTVSIYEETRWQWLCTMYSCWSQGLLVSTVYANLGEDALQYALDEAQCNAIVCNGSKVKDVLAMFKVIEAPKGTKVIYLDELPPSVTSEEYDLYAWSDVVARGKKSEASCRIPSGAESKDELALIMYTSGTTGNPKGVMHTHGSLYCGCMTISQRINDLLGKMKEQEWYCSYLPLAHIMELAVTSVLMMRGVIIGYGSPRTLLDTFAKPCGDLTTYRPLVFVAVPRVFDSMKRAVEEKLPPPGSLKRKIFDKAYEARLKALKKGCDTPFFNKRVFANARKVMGGRVYAMLSGGGPLSESTQEFINVVFGMVIQGWGMTESVACGGIQRTGNLEYNCVGQVLKTAEVQLLDTDEFKHTDQPEPRGEVLLRGPFLFKGYYKQPEQTREALDNDGWLHTGDVASVTPSGTMRIVGRVKALAKNANGEYLALEMLESIYGTNEITVPNGVCVLVHPHRTYIAIIAVTNEKLVKAFMKKHKIENGGFPAILDDAEFLRVVLQSLQKTARDANRCSFEVVQGVKLLNEEWTPENGVLTAAMKLKRRVISENYADFINKLFEKQ | not soluble
4 | MAHHHHHHMGISEGFEGIGVYAGSISAFMKPAHEKADATFVTNGDGVLPCEQPGSQAAIQAAQADYMASVAMTGKLPSPPHAGAEAHLHAHMQASHTSSLPRRAPPAALNVTPRNPPMSLAADPKLLSSPTSASAARPAVAAAAAAIGVTARPATSSLSSSPRPQSHIAKGASRVTADGSRIMRNKEATDYYRALPQNELSKEDMWRRINEASADRAEATGTAIGSAEVDYIKLEDELRDFDLFHYRIGEMAYPDQAMRRDYYALWNLAMSLNKARWSMLEVHSQRGMKTTGAGMKLIFWKESVGAVMEKRKMCTGEFTDSHPVLRPFAAAVERNPHMTKAFVRGFTDARLRVIQQPGNVQQLFDHFDKFYGYFFNSLLEVTHIKDEATEHLMTHVGRATGLTNHCVMFWKKYARLGFTMLPADLCADNHVNLGLLKNIPLASRDRAVRKVLFDVMCIVKDEMLHAQKCAKDVPPKAWPIVMECLYANYYLGFLQRRDFNVSAMFADHNIENAGFTWYRLKKRWEWERYQSIERLVDEAAPLPYINTCFTHRGSHYKMASGVGSGAPQAQRKRS | not soluble
5 | MAHHHHHHMGKAAKGRTAMPGKLDTTEADKRTPKSIIIYRGEVGIHVRSLMHEWRNVFLPWSSKKLHGKNKSLKDFLAVAATFSASHLQLFTAPSQGTSLRIMRFFNGPTLSFRVLSFTLHKEIVAKQRRPVAVDRAAWEVAPIVVLNNFTHPDLAHRAEVPLLTATFKALFPSLNVQTIQSSEIQRICLFHYDHVEHVVEVRHYYINARTVGVTKTVKKLLENRRPTKLGTLESIDEVLDREDAWSDTDGEGEEVPLVQPFRQHREQCRVKLQEIGPRMTLQLSKVENGFAGGEVIYHRTEKKTLREVQVNASKVRARKTEKAKRRALQDENVQRKRQKREDKLERKHQRREAAAEAQQANPFEVAHGDGDGDGYAAGDEE | soluble
6 | MAHHHHHHMGLEDIDECLPPSLGGKGQVLKGRPVNNGDGTSGSCAKVNFGELFGFPVASSGGAVMPSASAGVGSVQAGSKTECQEPEEQWIWVSAEGQKSEASPVDNMAGRSNDPLDAFFTSHTPSLQPSSSMKREEKPFTDLLDFSKPAERVRYSDEHSLLEAFENQSKGRRADVRDDPSLEDLSHGSSNNAVRARLLKIMNYYDILGVTRDATEEQIRQRYKQKALELHPDRVGRDQTPEEVELFKVMTKANEVLCDPEERAKYDEELRCSNVGADDEAQWLFHLHLR | soluble
7 | MAHHHHHHMGLEDIDVDDPPLTTSATPQTQKQCSSTLPNPPVTNVVKGASAPVDLVDLFGDLNVSTATPVVVTAATVGAATNSKNQAHYAGNTADDDFEWVTAKPSVAPPLAPKSYQGNAGTSNDPLDSFFSQAVPTPAATETAKPPDSSNDLFDFSEPVERVKYTNENTLLEAFANQGKANQGGGSKGPTLADLSKGSSDNVVKARLLKLMNYYDVLGVTPDATEAVIRQRFKKKALELHPDRVGRDQTPEEVELFKVMTKAHEVLTDPEERAKYDAQLLGGVPSGSPDSDWFFPPS | soluble
8 | MAHHHHHHMGPTPYQDKPYPVQPHNLNEFQQPPDTWRKSPFMSKLMDQALPVYDDVVTGSGRLYWQEPAKVWHLFEADDTLILEEHDREEWNERPYVAVNHLYEPPIGSEERPIRVEAVGNPGDQQIVMCFGNCAPHVPQSTYYMMMKGYSKNKCPMCQQWFYIHNRPWLVMHPDWTDEPAADEGPAYTFAEIEAEFDRDFHEFAVYLNAE | not soluble
9 | MAHHHHHHMGQISSKEDEIEKQNIYATYPGLEQQLDMVFACHDISKQGKLSYKTVEMILRHFLMQCGFMEYVCRFVDENGTLDLKHVSNYLSIKKLMYKLKCCGESMLTLDEMKELVIIFLKKISDTYTEDQTKWLEQMKSSQEQQDKALEEAMYKYEKNILFHHAVKEQQILQNDKKLNEWNENVENAYEAQQEILRQFESSRKKNIDISLEKNNELIIAKDYIDKIKEAATDNKYDNSKCFIYPASSAPCGACTSAGAIIHHRRYKEKRRKKEYSLCL | not soluble
10 | MAHHHHHHMGRSFKVFLSNYVYRYGAAVWELRVCIERCAFPDYYAASPHDCAASSHYHAAYPPRSCSECGNHLSDPTELVSTSFRGRTGPAWLFSKVINVCEGQYEDRMMTTGQHTIVDIYCNNCRNNVGWKYEDSSEESQKYKKGKYILEKALLSFLVIDQHGKEHEFELKSSDCDF | not soluble
11 | MAHHHHHHMGSKYGSGNYQLFRALYKDLCDEIRREYYTKPPPPPPATRTTGASPSLVAAEAALEVHGSAGSGANDTSSGAAKQRSMAGGAGATSSSTQGGGMTAGSEREGSTVEAAHAARETAATPPSQPEETYGDGSWSVQHRPEDNVAVFHRGAVKRGRLAAVHAWARIELKDPPRLNAVLTFADWIPIEVCVERNGIVIHFSMAANEGGMHMRNVRVYEPKSAEERAALLDPSDDGEYARKNFYYDGPCLWHLELDMLNELYDVMQDHGVTLDWIRWAASWVFYLEHVNYVRWNLGMLEELIPSSLRGPEEDFLLPVEKALLAEPVEDWLRAHSI | not soluble
12 | MAHHHHHHMGTLEAQTQGPGSMGTSQEFETSSLKTLPLYELHEKAGAKFGAFAGWRMPLTYPLGVLKEHLHTRAHAGLFDISHMKLIAVEGPKAVEFLSYALPVDAALLKIGQSRYSYLLNERAGILDDLILTRLAECRFMLVANAGNAQADFAELEKRAFGFECQVIALERVLLALQGPQAAAVLADAGLPGNELLFMQGFEPQQDWFITRSGYTGEDGFEIALPIGCARALAEKLLGDSRVEWVGLAARDSLRLEAGLCLHGNDITPDTTPIDAALTWAVPKNVREKAQFYGAKAFLESLQKGPSRCRVGLKPQTRQPIRAGAVLFDNEGNRIGVVTSGGFGPSFDGPVAMGYVPVAWKVEGTEVFTELRGKKIALSVHSLPFVEQRYFKG | soluble
13 | MAHHHHHHMGTLEAQTQGPGSMMETDATAEAAAVAYEDIITRFGAAPITDDLLKRFETVTGTKAHPMLRRGLFYAHRDFEEFLSYYEKGHPIYIYTGRGPSSGALHLGHLLPFIFTKYLQDAFKCYVVIQITDDEKFLRNRSLSYAEVDSYTRENIKDIIACGFDPDKTFIFINSQYLSLKNRYRFSCLVDRMLPISQLRASFGFSNDANVGYAAFPPKQMLPVYSTYFDGLPFTRVPLPVGTGNEDAADAVSTKKASKKTPKKDAVLSPVHVVEELFPDSKRYQKAMCLIASGIEQDPYFRLARDLAPRMGHPKNAYLLGKFLPGLQGSGTKMSASDPNSAIYLTDTPAQIKNKINRYAFSGGRDTEEEHRAFGADLSVDVSVRYLEVFMKDDAELEKLKADYKTGKLLTGEVKATLIGILQGLIKEHAERRDKVDTTMIESFTVKKELQ | soluble
14 | MAHHHHHHMGTLEAQTQGPGSMPIKSSLLIVVACALLDQDNRVLLTQRPEGKSLAGLWEFPGGKVEQGETPEASLIRELEEELGVHVQADNLFPLTFASHGYETFHLLMPLYFCSHYKGVAQGREGQNLKWIFINDLDKYPMPEADKPLVQVLKNFFI | soluble
15 | MAHHHHHHMGTLEAQTQGPGSMSVSAAPSATSIDRYRRITKLGEGTYGEVYKAIDTVTNETVAIKRIRLEHEEEGVPGTAIREVSLLKELQHRNIIELKSVIHHNHRLHLIFEYAENDLKKYMDKNPDVSMRVIKSFLYQLINGVNFCHSRRCLHRDLKPQNLLLSVSDASETPVLKIGDFGLARAFGIPIRQFTHEIITLWYRPPEILLGSRHYSTSVDIWSIACIWAEMLMKTPLFPGDSEIDQLFKIFEVLGLPDDTTWPGVTALPDWKQSFPKFRGKTLKRVLGALLDDEGLDLLTAMLEMDPVKRISAKNALEHPYFSHNDFDP | soluble
16 | MAHHHHHHMGTLEAQTQGPGSMTAASSSAPTLGIIRLEHAKGLDLPAYETAGSAGMDLRAAVAEDRQIVLLPGRRTLVPTGLILEIPQGYEVQIRPRSGLAFKNGITCLNTPGTIDSDYRGEVKVLLINLGDDDFRIERGMRIAQAVFAPVIQPKIEERAKISETARGAGGFGSTGTA | soluble
17 | MAHHHHHHMHDRIFAFAQQKVGLTAEQAECLSRKYWLNYGLSLYGYVKEYNVDAKEYSDFVHQCSYDKLHYNKPLIDMLLIMQYAPEAARGHDGPRSTNIDHLYYFTNANHSHARNVLDAQGLRPIFTRPRPVGLPVKENHPASEQAGAEDQVEWLGFSYEDQWQLTHPEIANKPMRQAYEAIYKAIEDQVAEDAALVATTTTAGSGSAFASSSASRNSDIAEEVKNKRARLRPENFVMVDDSLMNIDAPLELGWSAVWYAHDTQELPTDVKDNASAPLYAAAVASGRLQVIRNILELRAAVERIREVNSRSASS | not soluble
18 | MAHHHHHHMHTNTMEVVVKHMGAAFSVAVIPVLKDNYTYIIHDKTTNTMAAVDVSADTTPIVDYVERIRRSIDERGAGAMSFSTIFSTHKHWDHAGGNVVLPKALKAAGAFRIIGGVNDNISGVTQTVREGDRLSLGALQVEVLEAPCHTRGHVLYKVYHPQAEKDGVALFTGDTMFVGGIGAFFEGDAAHMCRALRKVYNLHHNATDKEEADRRTFVFPGHEYTVNFLQFARDTIPPAHPDATFIASQLERYKESVAQRKPTVPSTLAEEKRQNLFLRTCDESFVREMKHGDTAETLMQHLYDTCP | not soluble

From the DeepSol protein solubility set
